Results as given in patent US20200216522A1 (DENALI THERAPEUTICS, published 2020).

T1: Peptide_014 (human)
T1 peptide: AKSTPTAEDVTAPLV

T2: Peptide_045 (human)
T2 peptide: REPKKVAVVRTPPKS

T3: Peptide_007 (human)
T3 peptide: MHQDQEGDTDAGLKE

T4: Peptide_058 (human)
T4 peptide: NVQSKCGSKDNIKHV

T5: Peptide_078 (human)
T5 peptide: TDHGAEIVYKSPVVS

T6: Peptide_026 (human)
T6 peptide: RMVSKSKDGTGSDDK

T7: Peptide_086 (human)
T7 peptide: ATLADEVSASLAKQG

T8: Peptide_008 (human)
T8 peptide: EGDTDAGLKESPLQT

T9: Peptide_062 (human)
T9 peptide: VQIVYKPVDLSKVTS

T10: Peptide_034 (human)
T10 peptide: ANATRIPAKTPPAPK

T11: Peptide_060 (human)
T11 peptide: NIKHVPGGGSVQIVY

T12: Peptide_080 (human)
T12 peptide: SPVVSGDTSPRHLSN

T13: Peptide_005 (human)
T13 peptide: GDRKDQGGYTMHQDQ

T14: Peptide_015 (human)
T14 peptide: TAEDVTAPLVDEGAP

T15: Peptide_013 (human)
T15 peptide: SETSDAKSTPTAEDV

T16: Peptide_069 (human)
T16 peptide: SEKLDFKDRVQSKIG

T17: Peptide_037 (human)
T17 peptide: TPPSSGEPPKSGDRS

T18: Peptide_009 (human)
T18 peptide: AGLKESPLQTPTEDG

T19: Peptide_036 (human)
T19 peptide: PPAPKTPPSSGEPPK

T20: Peptide_040 (human)
T20 peptide: GYSSPGSPGTPGSRS

T21: Peptide_051 (human)
T21 peptide: PDLKNVKSKIGSTEN

T22: Peptide_012 (human)
T22 peptide: SEEPGSETSDAKSTP

T23: Peptide_049 (human)
T23 peptide: SRLQTAPVPMPDLKN

T24: Peptide_083 (human)
T24 peptide: VSSTGSIDMVDSPQL

T25: Peptide_059 (human)
T25 peptide: CGSKDNIKHVPGGGS

T26: Peptide_010 (human)
T26 peptide: SPLQTPTEDGSEEPG

T27: Peptide_087 (human)
T27 peptide: TLADEVSASLAKQGL

T28: Peptide_016 (human)
T28 peptide: TAPLVDEGAPGKQAA

T29: Peptide_066 (human)
T29 peptide: GNIHHKPGGGQVEVK

T30: Peptide_053 (human)
T30 peptide: GSTENLKHQPGGGKV

T31: Peptide_052 (human)
T31 peptide: VKSKIGSTENLKHQP

T32: Peptide_041 (human)
T32 peptide: GSPGTPGSRSRTPSL

T33: Peptide_081 (human)
T33 peptide: GDTSPRHLSNVSSTG

T34: Peptide_028 (human)
T34 peptide: GSDDKKAKGADGKTK

T35: Peptide_042 (human)
T35 peptide: PGSRSRTPSLPTPPT

B1: chimeric IgG clone 1A5 (antibody, V domains shown)
VH: EVQLQQSGAELVRPGASVKLSCTASGFNIKDSLIHWVKQRPEQGLEWIGWIDPEDGETKYAPKFQDKATKTADTSSNTAYLQLSSLTSEDTAIYYCASGEWDYWGQGTSVTVSS
VL: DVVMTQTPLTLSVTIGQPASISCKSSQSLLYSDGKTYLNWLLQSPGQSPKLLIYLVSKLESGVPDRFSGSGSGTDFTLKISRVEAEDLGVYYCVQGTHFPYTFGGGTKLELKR
notes: mouse-human chimeric IgG from HEK293
B2: chimeric IgG clone 1A1 (antibody, V domains shown)
VH: EVQLQQSGAELVRPGASVRLSCTASGFNIKDSLMHWLKQRPEQGLEWIGWIDPEDGETKYAPKFQDKATITADTSSNTAYLQLSSLTSEDTAIYYCTRRDWEGPWGQGTLVTVSA
VL: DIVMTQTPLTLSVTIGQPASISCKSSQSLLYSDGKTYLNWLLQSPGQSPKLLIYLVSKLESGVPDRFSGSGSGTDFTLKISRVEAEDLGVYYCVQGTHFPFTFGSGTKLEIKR
notes: mouse-human chimeric IgG from HEK293; also called anti-Tau 1A1; anti-Tau^1A1
B3: chimeric IgG clone 1G7 (antibody, V domains shown)
VH: EVQLQQSGAEVVRPGASVKLSCTTSGFNIKDSLMHWLKQRPEQGLEWIGWIDPEDGETKYAPKFQDKATITADTSSNTAYLQLSSLTSGDTAIYYCARRDWEGPWGQGTLVTVSA
VL: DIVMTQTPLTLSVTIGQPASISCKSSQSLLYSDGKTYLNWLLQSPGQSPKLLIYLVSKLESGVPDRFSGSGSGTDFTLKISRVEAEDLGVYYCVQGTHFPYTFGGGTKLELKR
notes: as for B1

How the values were obtained:
Test in all cases: peptide array
Peptide_014 = biological target: T1, Peptide_014
Summary of the method: (§1)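 Overlapping 15-mer peptides (5-aa offset) spanning human 2N4R Tau spotted in triplicate on slides; antibodies bound 2 h at room temperature in 3% BSA-TBST (chimeric IgG 5 μg/mL; mouse IgG 30 μg/mL). Detection 1 h with fluorescent anti-human (568 nm) or anti-mouse (647 nm) secondary; fluorescence imaging aligned to array map.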

Peptide_045 = biological target: T2, Peptide_045
Summary of the method: as §1

Peptide_007 = biological target: T3, Peptide_007
Summary of the method: as §1

Peptide_058 = biological target: T4, Peptide_058
Summary of the method: as §1

Peptide_078 = biological target: T5, Peptide_078
Summary of the method: as §1

Peptide_026 = biological target: T6, Peptide_026
Summary of the method: as §1

Peptide_086 = biological target: T7, Peptide_086
Summary of the method: as §1

Peptide_008 = biological target: T8, Peptide_008
Summary of the method: as §1

Peptide_062 = biological target: T9, Peptide_062
Summary of the method: as §1

Peptide_034 = biological target: T10, Peptide_034
Summary of the method: as §1

Peptide_060 = biological target: T11, Peptide_060
Summary of the method: as §1

Peptide_080 = biological target: T12, Peptide_080
Summary of the method: as §1

Peptide_005 = biological target: T13, Peptide_005
Summary of the method: as §1

Peptide_015 = biological target: T14, Peptide_015
Summary of the method: as §1

Peptide_013 = biological target: T15, Peptide_013
Summary of the method: as §1

Peptide_069 = biological target: T16, Peptide_069
Summary of the method: as §1

Peptide_037 = biological target: T17, Peptide_037
Summary of the method: as §1

Peptide_009 = biological target: T18, Peptide_009
Summary of the method: as §1

Peptide_036 = biological target: T19, Peptide_036
Summary of the method: as §1

Peptide_040 = biological target: T20, Peptide_040
Summary of the method: as §1

Peptide_051 = biological target: T21, Peptide_051
Summary of the method: as §1

Peptide_012 = biological target: T22, Peptide_012
Summary of the method: as §1

Peptide_049 = biological target: T23, Peptide_049
Summary of the method: as §1

Peptide_083 = biological target: T24, Peptide_083
Summary of the method: as §1

Peptide_059 = biological target: T25, Peptide_059
Summary of the method: as §1

Peptide_010 = biological target: T26, Peptide_010
Summary of the method: as §1

Peptide_087 = biological target: T27, Peptide_087
Summary of the method: as §1

Peptide_016 = biological target: T28, Peptide_016
Summary of the method: as §1

Peptide_066 = biological target: T29, Peptide_066
Summary of the method: as §1

Peptide_053 = biological target: T30, Peptide_053
Summary of the method: as §1

Peptide_052 = biological target: T31, Peptide_052
Summary of the method: as §1

Peptide_041 = biological target: T32, Peptide_041
Summary of the method: as §1

Peptide_081 = biological target: T33, Peptide_081
Summary of the method: as §1

Peptide_028 = biological target: T34, Peptide_028
Summary of the method: as §1

Peptide_042 = biological target: T35, Peptide_042
Summary of the method: as §1

Binder	binding result (Peptide_014)	binding result (Peptide_045)	binding result (Peptide_007)	binding result (Peptide_058)	binding result (Peptide_078)	binding result (Peptide_026)	binding result (Peptide_086)	binding result (Peptide_008)	binding result (Peptide_062)	binding result (Peptide_034)	binding result (Peptide_060)	binding result (Peptide_080)	binding result (Peptide_005)	binding result (Peptide_015)	binding result (Peptide_013)	binding result (Peptide_069)	binding result (Peptide_037)	binding result (Peptide_009)	binding result (Peptide_036)	binding result (Peptide_040)	further results
B1	no binding (tested: 5 ug/mL)	no binding (tested: 5 ug/mL)	no binding (tested: 5 ug/mL)	no binding (tested: 5 ug/mL)	no binding (tested: 5 ug/mL)	no binding (tested: 5 ug/mL)	no binding (tested: 5 ug/mL)	no binding (tested: 5 ug/mL)	no binding (tested: 5 ug/mL)	no binding (tested: 5 ug/mL)	no binding (tested: 5 ug/mL)	no binding (tested: 5 ug/mL)	no binding (tested: 5 ug/mL)	no binding (tested: 5 ug/mL)	no binding (tested: 5 ug/mL)	no binding (tested: 5 ug/mL)	no binding (tested: 5 ug/mL)	no binding (tested: 5 ug/mL)	no binding (tested: 5 ug/mL)	no binding (tested: 5 ug/mL)	binding result (Peptide_051): binds; binding result (Peptide_012): no binding (tested: 5 ug/mL); binding result (Peptide_049): no binding (tested: 5 ug/mL); binding result (Peptide_083): no binding (tested: 5 ug/mL); binding result (Peptide_059): no binding (tested: 5 ug/mL); binding result (Peptide_010): no binding (tested: 5 ug/mL); binding result (Peptide_087): no binding (tested: 5 ug/mL); binding result (Peptide_016): no binding (tested: 5 ug/mL); binding result (Peptide_066): no binding (tested: 5 ug/mL); binding result (Peptide_053): no binding (tested: 5 ug/mL); binding result (Peptide_052): binds; binding result (Peptide_041): no binding (tested: 5 ug/mL); binding result (Peptide_081): no binding (tested: 5 ug/mL); binding result (Peptide_028): no binding (tested: 5 ug/mL); binding result (Peptide_042): no binding (tested: 5 ug/mL)
B2	no binding (tested: 5 ug/mL)	no binding (tested: 5 ug/mL)	no binding (tested: 5 ug/mL)	no binding (tested: 5 ug/mL)	no binding (tested: 5 ug/mL)	no binding (tested: 5 ug/mL)	no binding (tested: 5 ug/mL)	no binding (tested: 5 ug/mL)	no binding (tested: 5 ug/mL)	no binding (tested: 5 ug/mL)	no binding (tested: 5 ug/mL)	no binding (tested: 5 ug/mL)	no binding (tested: 5 ug/mL)	no binding (tested: 5 ug/mL)	no binding (tested: 5 ug/mL)	no binding (tested: 5 ug/mL)	no binding (tested: 5 ug/mL)	no binding (tested: 5 ug/mL)	no binding (tested: 5 ug/mL)	no binding (tested: 5 ug/mL)	binding result (Peptide_051): binds; binding result (Peptide_012): no binding (tested: 5 ug/mL); binding result (Peptide_049): no binding (tested: 5 ug/mL); binding result (Peptide_083): no binding (tested: 5 ug/mL); binding result (Peptide_059): no binding (tested: 5 ug/mL); binding result (Peptide_010): no binding (tested: 5 ug/mL); binding result (Peptide_087): no binding (tested: 5 ug/mL); binding result (Peptide_016): no binding (tested: 5 ug/mL); binding result (Peptide_066): no binding (tested: 5 ug/mL); binding result (Peptide_053): no binding (tested: 5 ug/mL); binding result (Peptide_052): binds; binding result (Peptide_041): no binding (tested: 5 ug/mL); binding result (Peptide_081): no binding (tested: 5 ug/mL); binding result (Peptide_028): no binding (tested: 5 ug/mL); binding result (Peptide_042): no binding (tested: 5 ug/mL)
B3	no binding (tested: 5 ug/mL)	no binding (tested: 5 ug/mL)	no binding (tested: 5 ug/mL)	no binding (tested: 5 ug/mL)	no binding (tested: 5 ug/mL)	no binding (tested: 5 ug/mL)	no binding (tested: 5 ug/mL)	no binding (tested: 5 ug/mL)	no binding (tested: 5 ug/mL)	no binding (tested: 5 ug/mL)	no binding (tested: 5 ug/mL)	no binding (tested: 5 ug/mL)	no binding (tested: 5 ug/mL)	no binding (tested: 5 ug/mL)	no binding (tested: 5 ug/mL)	no binding (tested: 5 ug/mL)	no binding (tested: 5 ug/mL)	no binding (tested: 5 ug/mL)	no binding (tested: 5 ug/mL)	no binding (tested: 5 ug/mL)	binding result (Peptide_051): binds; binding result (Peptide_012): no binding (tested: 5 ug/mL); binding result (Peptide_049): no binding (tested: 5 ug/mL); binding result (Peptide_083): no binding (tested: 5 ug/mL); binding result (Peptide_059): no binding (tested: 5 ug/mL); binding result (Peptide_010): no binding (tested: 5 ug/mL); binding result (Peptide_087): no binding (tested: 5 ug/mL); binding result (Peptide_016): no binding (tested: 5 ug/mL); binding result (Peptide_066): no binding (tested: 5 ug/mL); binding result (Peptide_053): no binding (tested: 5 ug/mL); binding result (Peptide_052): binds; binding result (Peptide_041): no binding (tested: 5 ug/mL); binding result (Peptide_081): no binding (tested: 5 ug/mL); binding result (Peptide_028): no binding (tested: 5 ug/mL); binding result (Peptide_042): no binding (tested: 5 ug/mL)
